Reference: patent US20200017862

Target: WT His-tagged PCNA (recombinant Xenopus PCNA) (UniProt P18248)
Sequence (P18248 whole entry): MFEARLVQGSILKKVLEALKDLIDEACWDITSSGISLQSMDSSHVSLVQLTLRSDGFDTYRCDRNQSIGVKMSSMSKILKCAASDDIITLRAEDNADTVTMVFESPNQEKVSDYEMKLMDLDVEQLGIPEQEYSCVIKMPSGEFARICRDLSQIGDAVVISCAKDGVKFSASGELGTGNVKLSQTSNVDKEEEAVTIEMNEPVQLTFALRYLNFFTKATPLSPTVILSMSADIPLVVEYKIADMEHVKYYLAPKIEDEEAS

| Substance | exonuclease activity on FAM-labeled gapped dsDNA, purified proteins in vitro |
| --- | --- |
| C470A GST-APE2 (mutant of full GST-APE2) | the gapped dsDNA structure was still resected by C470A APE2 or F486A-Y487A APE2 to some extent similar to WT APE2 with the presence of WT PCNA |
| F486A-Y487A GST-APE2 (mutant of full GST-APE2) | the gapped dsDNA structure was still resected by C470A APE2 or F486A-Y487A APE2 to some extent similar to WT APE2 with the presence of WT PCNA |
